# Measured values published in US20250019680.
# Tests used:
# [1] = test system: dRBD #3L (LwaCas13a with hnRNP A1 RRM2 98-196 inserted between N415 and N416, catalytically inactive HEPN2) R1046A/H1051A (LwaCas13a numbering) (Leptotrichia wadei / Homo sapiens); test: EMSA
# [2] = test system: dRBD #4L (LwaCas13a with hnRNP C RRM 2-106 inserted between N415 and N416, catalytically inactive HEPN2) R1046A/H1051A (LwaCas13a numbering) (Leptotrichia wadei / Homo sapiens); test: EMSA
# [3] = test system: T1, RBD #6L LwaCas13a (ADAR1 126-202 in Loop 1) (Leptotrichia wadei / Homo sapiens); test: cleavage_in_vitro; details: collateral cleavage of RNaseAlert
# T1 sequence: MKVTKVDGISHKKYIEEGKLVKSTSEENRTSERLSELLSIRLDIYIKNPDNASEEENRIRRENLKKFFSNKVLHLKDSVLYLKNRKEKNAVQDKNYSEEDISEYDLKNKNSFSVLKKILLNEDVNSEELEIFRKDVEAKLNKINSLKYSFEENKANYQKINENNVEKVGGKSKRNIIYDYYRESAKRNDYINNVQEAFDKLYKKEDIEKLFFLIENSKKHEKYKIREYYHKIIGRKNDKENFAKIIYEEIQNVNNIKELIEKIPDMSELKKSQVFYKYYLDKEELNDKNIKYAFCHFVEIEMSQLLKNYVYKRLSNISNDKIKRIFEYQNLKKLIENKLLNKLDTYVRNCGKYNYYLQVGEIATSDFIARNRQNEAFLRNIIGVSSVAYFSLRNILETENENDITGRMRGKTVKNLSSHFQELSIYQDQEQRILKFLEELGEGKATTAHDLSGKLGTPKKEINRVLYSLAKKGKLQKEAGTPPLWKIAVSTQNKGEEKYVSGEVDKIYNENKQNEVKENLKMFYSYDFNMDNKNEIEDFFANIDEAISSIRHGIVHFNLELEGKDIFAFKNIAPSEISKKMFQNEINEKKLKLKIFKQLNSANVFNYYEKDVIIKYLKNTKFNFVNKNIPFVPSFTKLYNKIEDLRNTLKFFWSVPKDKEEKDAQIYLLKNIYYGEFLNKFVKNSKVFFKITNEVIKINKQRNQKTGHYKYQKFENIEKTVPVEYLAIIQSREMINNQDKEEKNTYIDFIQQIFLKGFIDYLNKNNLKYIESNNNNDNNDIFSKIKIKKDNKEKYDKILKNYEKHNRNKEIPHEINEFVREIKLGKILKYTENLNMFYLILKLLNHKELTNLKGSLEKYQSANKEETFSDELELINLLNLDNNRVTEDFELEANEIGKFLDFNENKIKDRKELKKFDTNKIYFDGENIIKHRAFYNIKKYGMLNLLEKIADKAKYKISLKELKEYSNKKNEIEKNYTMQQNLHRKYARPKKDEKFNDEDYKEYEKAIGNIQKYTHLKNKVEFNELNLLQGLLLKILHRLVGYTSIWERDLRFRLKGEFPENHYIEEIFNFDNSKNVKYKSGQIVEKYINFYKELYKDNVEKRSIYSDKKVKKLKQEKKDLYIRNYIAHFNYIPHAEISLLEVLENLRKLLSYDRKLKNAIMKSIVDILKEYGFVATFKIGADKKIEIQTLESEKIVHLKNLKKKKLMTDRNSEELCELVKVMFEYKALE
# [4] = test system: RBD #4L LwaCas13a (Leptotrichia wadei / Homo sapiens); test: cleavage_in_vitro; details: collateral cleavage of RNaseAlert
# [5] = test system: RBD #2L LwaCas13a (hnRNP A1 1-104 in Loop 1) (Leptotrichia wadei / Homo sapiens); test: cleavage_in_vitro; details: collateral cleavage of RNaseAlert
# [6] = test system: RBD #3L LwaCas13a (Leptotrichia wadei / Homo sapiens); test: cleavage_in_vitro; details: collateral cleavage of RNaseAlert
# [7] = crRNA complex, 50 mM Tris pH 8.0, 60 mM NaCl, 5 mM MgCl2, 37 C
# [8] = crRNA complex, 5 mM MgCl2, 37 C
# [9] = collateral reporter binding by cr1/T1-bound complex, pH 7.5, 5 mM MgCl2, 0.01% Triton X-100
sequence,measurement,setting,value
GACUACCCCAAAAACGAAGGGGACUAAAACAAUCUGAGGGUCCACCAAACGUAAUGCG / ACCCCGCAUUACGUUUGGUGGACCCUCAGAUUCAAC [cr1_N crRNA ; T26_N_2 target (36 nt)],Kd,[1]; [7],23 nM
same,Kd,[2]; [7],18 nM
GACUACCCCAAAAACGAAGGGGACUAAAACAAUCUGAGGGUCCACCAAACGUAAUGCG / GUCUGAUAAUGGACCCCAAAAUCAGCGAAAUGCACCCCGCAUUACGUUUGGUGGACCCUCAGAUUCAACUGGCAGUAACCAGAAUGGAGAACGCAGUGGGGCGCG [cr1_N crRNA ; T1_N target (105 nt)],Kd,[1]; [8],12 nM
same,Kd,[2]; [8],11 nM
GACUACCCCAAAAACGAAGGGGACUAAAACUCACUCAAUACUUGAGCACACUCAUUAG / GUGAUAGAGCCAUGCCUAACAUGCUUAGAAUUAUGGCCUCACUUGUUCUUGCUCGCAAACAUACAACGUGUUGUAGCUUGUCACACCGUUUCUAUAGAUUAGCUAAUGAGUGUGCUCAAGUAUUGAGUGAAAUGGUCAUGUGUGGCGGUUCACUAUAUGUUAAACCAGGUGGAACCUCAUCAGGAGAUGCCACAACUGCUUAUGCUAAUAGUGUUUUUAACAUUUGU [cr2_RdRp crRNA ; T2_RdRp target],binding signal (% higher than WT),[3],171
same,binding signal (% higher than WT),[4],241
same,binding signal (% higher than WT),[5],164
same,binding signal (% higher than WT),[6],264
UUUUUUUUUUUUUUUUUUUU [U20 reporter],Kd,[1]; [9],230 nM
same,Kd,[2]; [9],150 nM
